PMC8205236, “Quantitative Profiling of WNT-3A Binding to All Human Frizzled Paralogues in HEK293 Cells by NanoBiT/BRET Assessments” (ACS Pharmacology & Translational Science, 2021)
Values belong to the binder of their own block, whether it stands above or below them.

Key:
[1] = target: T1, HiBiT-tagged human FZD4 (human, UniProt Q9ULV1 37-537); test: FRET or BRET; NanoBiT/BRET competition binding on live HEK293A cells with HiBiT-FZD4: 30 min preincubation with purified untagged WNT at 37 °C, then eGFP-WNT-3A to 0.4 nM for 240 min, then LgBiT and furimazine; pKi by Cheng-Prusoff; settings: one partner purified
T1 construct: the receptor's own signal peptide is probably replaced; also called HiBiT-FZD4; WT FZD4; source: HEK293A, transiently transfected, on live cells; not shown: HiBiT, N-terminal, kept
T1 sequence (looked up): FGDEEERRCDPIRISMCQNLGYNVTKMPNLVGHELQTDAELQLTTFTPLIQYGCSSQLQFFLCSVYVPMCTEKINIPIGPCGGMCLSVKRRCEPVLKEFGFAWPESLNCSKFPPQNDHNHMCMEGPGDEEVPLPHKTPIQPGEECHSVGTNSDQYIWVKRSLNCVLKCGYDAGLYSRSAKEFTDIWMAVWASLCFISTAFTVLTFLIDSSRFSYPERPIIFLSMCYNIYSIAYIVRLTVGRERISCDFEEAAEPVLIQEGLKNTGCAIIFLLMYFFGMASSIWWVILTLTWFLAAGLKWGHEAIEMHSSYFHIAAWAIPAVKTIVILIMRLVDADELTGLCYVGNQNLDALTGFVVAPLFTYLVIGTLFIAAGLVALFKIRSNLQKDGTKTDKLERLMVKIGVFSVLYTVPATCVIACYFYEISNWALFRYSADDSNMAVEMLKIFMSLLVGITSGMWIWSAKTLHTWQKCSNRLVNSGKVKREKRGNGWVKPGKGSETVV

[2] = target: T2, eGFP-tagged mouse WNT-3A (mouse, UniProt P27467 19-352); test: FRET or BRET; NanoBiT/BRET saturation binding on live HEK293A cells (setup 1): eGFP-WNT-3A conditioned medium 16.7 pM to 16.7 nM, 5% FBS, 10 mM HEPES, 240 min at 37 °C, then LgBiT and furimazine for 10 min; one-site specific model (normalised logarithmic fits for pKd); settings: partners not purified
T2 construct: WNT-3A, mouse, eGFP-tagged, secreted into conditioned medium; Co-expressed with His-Afamin, which may accompany the WNT in the medium; Two batches (16.7 nM and 16.2 nM); also called eGFP-WNT-3A; eGFP-Wnt-3A; source: HEK293F suspension cells, cotransfected with pCS2+-eGFP-WNT-3A and pCMV-His-Afamin; conditioned medium, concentrated 5-fold and medium-exchanged (not purified)

0.4 nM eGFP-WNT-3A binding displaced (%) [1]: 78.3% | pKi [1]: 6.93 | ΔBRET [1]: -0.004
B1: untagged human WNT-5B (ligand, UniProt Q9H1J7 18-359, looked up)
chain: QLLTDANSWWSLALNPVQRPEMFIIGAQPVCSQLPGLSPGQRKLCQLYQEHMAYIGEGAKTGIKECQHQFRQRRWNCSTADNASVFGRVMQIGSRETAFTHAVSAAGVVNAISRACREGELSTCGCSRTARPKDLPRDWLWGGCGDNVEYGYRFAKEFVDAREREKNFAKGSEEQGRVLMNLQNNEAGRRAVYKMADVACKCHGVSGSCSLKTCWLQLAEFRKVGDRLKEKYDSAAAMRVTRKGRLELVNSRFTQPTPEDLVYVDPSPDYCLRNESTGSLGTQGRLCNKTSEGMDGCELMCCGRGYNQFKSVQVERCHCKFHWCCFVRCKKCTEIVDQYICK
notes: WNT-5B, human, untagged recombinant protein; source: bought: RnD Systems/Biotechne, purified

0.4 nM eGFP-WNT-3A binding displaced (%) [1]: 58.4% | pKi [1]: 8.9 | ΔBRET [1]: -0.001
B2: untagged human WNT-11 (ligand, UniProt O96014 25-354, looked up)
chain: IKWLALSKTPSALALNQTQHCKQLEGLVSAQVQLCRSNLELMHTVVHAAREVMKACRRAFADMRWNCSSIELAPNYLLDLERGTRESAFVYALSAAAISHAIARACTSGDLPGCSCGPVPGEPPGPGNRWGGCADNLSYGLLMGAKFSDAPMKVKKTGSQANKLMRLHNSEVGRQALRASLEMKCKCHGVSGSCSIRTCWKGLQELQDVAADLKTRYLSATKVVHRPMGTRKHLVPKDLDIRPVKDSELVYLQSSPDFCMKNEKVGSHGTQDRQCNKTSNGSDSCDLMCCGRGYNPYTDRVVERCHCKYHWCCYVTCRRCERTVERYVCK
notes: WNT-11, human, untagged recombinant protein; source: bought: RnD Systems/Biotechne, purified

0.4 nM eGFP-WNT-3A binding displaced (%) [1]: 78.4% | pKi [1]: 7.08 | ΔBRET [1]: -0.004
B3: untagged human/mouse WNT-5A (ligand, UniProt P41221 62-380, looked up)
chain: IIGAQPLCSQLAGLSQGQKKLCHLYQDHMQYIGEGAKTGIKECQYQFRHRRWNCSTVDNTSVFGRVMQIGSRETAFTYAVSAAGVVNAMSRACREGELSTCGCSRAARPKDLPRDWLWGGCGDNIDYGYRFAKEFVDARERERIHAKGSYESARILMNLHNNEAGRRTVYNLADVACKCHGVSGSCSLKTCWLQLADFRKVGDALKEKYDSAAAMRLNSRGKLVQVNSRFNSPTTQDLVYIDPSPDYCVRNESTGSLGTQGRLCNKTSEGMDGCELMCCGRGYDQFKTVQTERCHCKFHWCCYVKCKKCTEIVDQFVCK
notes: WNT-5A, printed as human/mouse, untagged recombinant protein; human WNT-5A is P41221; source: bought: RnD Systems/Biotechne, purified

0.4 nM eGFP-WNT-3A binding displaced (%) [1]: 34.5% | pKi [1]: 7.87 | ΔBRET [1]: -0.001
B10: untagged human WNT-10B (ligand)
chain: not shown
notes: WNT-10B, human, untagged recombinant protein; source: bought: RnD Systems/Biotechne, purified

Continued, binder first:

B4: FZD4-CD86 chimeric protein (HiBiT-tagged) (receptor)
chain: FGDEEERRCDPIRISMCQNLGYNVTKMPNLVGHELQTDAELQLTTFTPLIQYGCSSQLQFFLCSVYVPMCTEKINIPIGPCGGMCLSVKRRCEPVLKEFGFAWPESLNCSKFPPQNDHNHMCMEGPGDEEVPLPHKTPIQPGEECHSVGTNSDQYIWVKRSLNCVLKCGYDAGLYS
Kd [2]: 142 nM

B5: FZD4-FZD6 chimeric protein (receptor)
chain: FGDEEERRCDPIRISMCQNLGYNVTKMPNLVGHELQTDAELQLTTFTPLIQYGCSSQLQFFLCSVYVPMCTEKINIPIGPCGGMCLSVKRRCEPVLKEFGFAWPESLNCSKFPPQNDHNHMCMEGPGDEEVPLPHKTPIQPGEECHSVGTNSDQYIWVKRSLNCVLKCGYDAGLYSIGTVSIFCLCATLFTFLTFLIDVRRFRYPERPIIYYSVCYSIVSLMYFIGFLLGDSTACNKADEKLELGDTVVLGSQNKACTVLFMLLYFFTMAGTVWWVILTITWFLAAGRKWSCEAIEQKAVWFHAVAWGTPGFLTVMLLAMNKVEGDNISGVCFVGLYDLDASRYFVLLPLCLCVFVGLSLLLAGIISLNHVRQVIQHDGRNQEKLKKFMIRIGVFSGLYLVPLVTLLGCYVYEQVNRITWEITWVSDHCRQYHIPCPYQAKAKARPELALFMIKYLMTLIVGISAVFWVGSKKTCTEWAGFFKRNRKRDPISESRRVLQESCEFFLKHNSKVKHKKKHYKPSSHKLKVISKSMGTSTGATANHGTSAVAITSHDYLGQETLTEIQTSPETSMREVKADGASTPRLREQDCGEPASPAASISRLSGEQVDGKGQAGSVSESARSEGRISPKSDITDTGLAQSNNLQVPSSSEPSSLKGSTSLLVHPVSGVRKEQGGGCHSDT
Kd [2]: 3.5 nM

B6: FZD6-FZD4 chimeric protein (receptor)
chain: HSLFTCEPITVPRCMKMAYNMTFFPNLMGHYDQSIAAVEMEHFLPLANLECSPNIETFLCKAFVPTCIEQIHVVPPCRKLCEKVYSDCKKLIDTFGIRWPEELECDRLQYCDETVPVTFDPHTEFLGPQKKTEQVQRDIGFWCPRHLKTSGGQGYKFLGIDQCAPPCPNMYFKSDELEFAKSFMAVWASLCFISTAFTVLTFLIDSSRFSYPERPIIFLSMCYNIYSIAYIVRLTVGRERISCDFEEAAEPVLIQEGLKNTGCAIIFLLMYFFGMASSIWWVILTLTWFLAAGLKWGHEAIEMHSSYFHIAAWAIPAVKTIVILIMRLVDADELTGLCYVGNQNLDALTGFVVAPLFTYLVIGTLFIAAGLVALFKIRSNLQKDGTKTDKLERLMVKIGVFSVLYTVPATCVIACYFYEISNWALFRYSADDSNMAVEMLKIFMSLLVGITSGMWIWSAKTLHTWQKCSNRLVNSGKVKREKRGNGWVKPGKGSETVV
Kd [2]: 5.8 nM

B7: FZD8-CD86 chimeric protein (HiBiT-tagged) (receptor)
chain: ASAKELACQEITVPLCKGIGYNYTYMPNQFNHDTQDEAGLEVHQFWPLVEIQCSPDLKFFLCSMYTPICLEDYKKPLPPCRSVCERAKAGCAPLMRQYGFAWPDRMRCDRLPEQGNPDTLCMDYNRTDLTTAAPSPPRRLPPPPPGEQPPSGSGHGRPPGARPPHRGGGRGGGGGDAAAPPARGGGGGGKARPPGGGAAPCEPGCQCRAPMVSVSSERHPLYNRVKTGQIANCALPCHNPFFSQDERA
Kd [2]: 22.9 nM

B8: untagged human WNT-3A (ligand, UniProt P56704 19-352, looked up)
chain: SYPIWWSLAVGPQYSSLGSQPILCASIPGLVPKQLRFCRNYVEIMPSVAEGIKIGIQECQHQFRGRRWNCTTVHDSLAIFGPVLDKATRESAFVHAIASAGVAFAVTRSCAEGTAAICGCSSRHQGSPGKGWKWGGCSEDIEFGGMVSREFADARENRPDARSAMNRHNNEAGRQAIASHMHLKCKCHGLSGSCEVKTCWWSQPDFRAIGDFLKDKYDSASEMVVEKHRESRGWVETLRPRYTYFKVPTERDLVYYEASPNFCEPNPETGSFGTRDRTCNVSSHGIDGCDLLCCGRGHNARAERRREKCRCVFHWCCYVSCQECTRVYDVHTCK
notes: WNT-3A, human, untagged recombinant protein; source: bought: RnD Systems/Biotechne, purified
0.4 nM eGFP-WNT-3A binding displaced (%) [1]: 40.8% | pKi [1]: 7.26 | ΔBRET [1]: -0.002

B9: FZD4-FZD8 chimeric protein (receptor)
chain: FGDEEERRCDPIRISMCQNLGYNVTKMPNLVGHELQTDAELQLTTFTPLIQYGCSSQLQFFLCSVYVPMCTEKINIPIGPCGGMCLSVKRRCEPVLKEFGFAWPESLNCSKFPPQNDHNHMCMEGPGDEEVPLPHKTPIQPGEECHSVGTNSDQYIWVKRSLNCVLKCGYDAGLYSFTVFWIGLWSVLCFVSTFATVSTFLIDMERFKYPERPIIFLSACYLFVSVGYLVRLVAGHEKVACSGGAPGAGGAGGAGGAAAGAGAAGAGAGGPGGRGEYEELGAVEQHVRYETTGPALCTVVFLLVYFFGMASSIWWVILSLTWFLAAGMKWGNEAIAGYSQYFHLAAWLVPSVKSIAVLALSSVDGDPVAGICYVGNQSLDNLRGFVLAPLVIYLFIGTMFLLAGFVSLFRIRSVIKQQDGPTKTHKLEKLMIRLGLFTVLYTVPAAVVVACLFYEQHNRPRWEATHNCPCLRDLQPDQARRPDYAVFMLKYFMCLVVGITSGVWVWSGKTLESWRSLCTRCCWASKGAAVGGGAGATAAGGGGGPGGGGGGGPGGGGGPGGGGGSLYSDVSTGLTWRSGTASSVSYPKQMPLSQV
Kd [2]: 2.9 nM
